Experimental data from the supplement of paper PMC12042874.
± gives the uncertainty stated by the source.

Test: amyloid nucleation score (Sup35N fusion, yeast selection) (log enrichment); library NNK3; higher = more nucleation; inactive = no reads after selection
Outline: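 DiMSum was used to calculate nucleation scores as log enrichment of output over input reads, centred on the mode score of non-aggregating sequences. Sequences with fewer than 100 input reads were not scored. Input and output came from Illumina sequencing of plasmid inserts in psi-negative yeast expressing peptides of 20 random codons fused to Sup35N, induced 24 hours with 100 μM copper sulfate and then grown 7 days at 30°C on medium lacking adenine and uracil.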

Substance	amyloid nucleation score
GTITPRYRYVIEVSSMKRYW	inactive
LWGYDNDVNCCTMALNVHGV	0.503 ± 0.3
VAVVIEYMKLVVLG	inactive
FLRWFWRD	0.785 ± 0.18
VVNRHGYLAMLK	inactive
MCGLVTFWRALRGNRGRY	inactive
CMIHYSSRAILEMWLAPRMY	inactive
FFLCDRKNRRST	inactive
RVLNS	inactive
FSSFG	inactive
TFAFYLTILMSMFDRYFTWP	inactive
SSVMFVRIVLRIGGYHLAAR	inactive
LDFRSVTDVWSCYI	inactive
NRQVNCSFEGFSNRSKVYAY	inactive
NIFDFVFDEFRLAQPMYKCC	inactive
FVNISHMY	inactive
NYARTFSRKRMVQKTRSGKG	-0.077 ± 0.4
LRGARCYKSNRVIGVLCGSV	inactive
IKWFLSNGIYYGILNFIDTR	inactive
FSPYYLPLYVLVVRIKIQLG	inactive
MLCLWFNEFHDVCPT	inactive
IWNSRSSCPECALATLETWA	inactive
YYDMIMLPAKSDANRCYGCA	inactive
TPEVISSV	inactive

Substance	amyloid nucleation score
VYSSVEFCISEKTHLKVWVL	inactive
ISQFHYLGRIST	inactive
DWHAIFTMFECNMQRGKSAR	0.113 ± 0.31
LSGRIAKTKRLIVHRLCEEG	inactive
DYCLSLLWINMPHVGNIVNL	inactive
IVMIVNTGIA	inactive
ARYDRS	inactive
IYDRMGGHL	inactive
IGMVHCIAEDARRLLLYIWV	inactive
IVKRFWLNGSFTFSFCNGNG	2.09 ± 0.09
FMYKLSLLVCDKWLIVILPF	inactive
VHCHV	-0.536 ± 0.93
WGDIEVFFSYVVYLSIWRES	inactive
VYYVNS	0.492 ± 0.18
DKDRVVSCMMTLLLSVGCAV	inactive
REVGDQMIDLSRSYVQSTVG	inactive
MYCSTYTVFYYAGIRVLCGD	1.28 ± 0.14
IHRYGTRRYETLRGQHAPFP	-0.719 ± 1.4
NFPYLAVFLRGFSFSVIDC	inactive
HFEIVSVANKITYCLCQQML	2.28 ± 0.075
TSYKYDSNR	inactive
VFVSLISSMTIFTCFVPECE	3.28 ± 0.069
RPRRTCWM	inactive
MHSTVVEHLLWLTFTPGYKL	inactive

Substance	amyloid nucleation score
VGAFLKLNRNLMTFSMARNY	inactive
RSCLCEWWDVGSSVSASTLL	inactive
SCIRVRRNATVAVVLDDMLK	inactive
INPFLHMVTSLIVEFRVLNC	inactive
EDFNRILVRNVRS	inactive
RSDCNGSSKYLISDHFP	inactive
PHFQTFRDYVLCGISFSYCE	1.46 ± 0.1
KLMVNNQFISISINMSRCLF	1.63 ± 0.098
TLDFGF	inactive
WSIRMW	inactive
GNVDVAHCDWCKGSTCMLN	2.64 ± 0.084
VRFLGFHKCVILAIDYDQFL	1.67 ± 0.1
LNVLAPFGWLARFIILAIP	inactive
TFDFPHIRRLEFKFAI	inactive
FPRSSRIFSCCSRIRLCAFV	inactive
YKFIRFFSSMT	inactive
VLFCRFSSWV	0.739 ± 0.26
GGLCLLAVLWKFLMSALVIR	inactive
CLHLWGVFKFFDVYWIMLMG	inactive
TRWQRCSAIPPVGEA	inactive
FLNTSPYCGTL	inactive
EVKGTCWVCVLVHVATSYVG	0.65 ± 0.21
NTCDAPMSNGYAWWD	-0.399 ± 0.75
EFMIIMYSHSLCVLQAVQLV	inactive

Substance	amyloid nucleation score
SSYYFFCDGLIFELLSQDNS	inactive
RYSEWPAD	inactive
SFFARGVFFAIRQARQGNSG	inactive
WLLENVPGITLAFV	inactive
TRLRSTPVLVVNW	inactive
PCRTDICR	inactive
LMNTYL	1.71 ± 0.099
QYLCWCCVARRPGSGFRTVV	inactive
CAVFRVSRISINTDAIFITC	1.74 ± 0.054
LMHGPMLVFRFVASNSCRER	inactive
ENALARMLAEEI	inactive
ILSVSLVVHRKRTTWISNYH	inactive
KCLMNFTVMRGASSCLEVPC	inactive
FHTYIELLRALIAIRQGGSF	inactive
MFLFKVTDTE	1.88 ± 0.098
MTLFDWFFLEIKAGWFRMVV	inactive
SCRIFDPMEPTTLCENSWSL	inactive
TNVSPLTPNT	inactive
MSVIIAIAMYRLFRDRTHPL	inactive
TVAEMNIMLC	2.37 ± 0.076
QSFQRSVYFSSKGNTEGLFS	inactive
LQHWPRTFWMGSRYAYLFSL	inactive
FRYPYNPVIREFCTCSSWFL	1.73 ± 0.069
RPRFWICMSYMEQSSDNRRT	1.37 ± 0.084

Substance	amyloid nucleation score
PSYNCFTKFVADQTVTLRFS	inactive
NHLLFSIPRSIRWKACVQ	inactive
YVSCK	inactive
TCSSINTLLKYMFLSISLFR	inactive
VDFRYCCGFV	0.824 ± 0.26
YGYVLTSTVGVILVYWSYSC	inactive
SVGGEWRS	1.34 ± 0.14
VCRWSGGGEIGIICGLVSLV	inactive
DGMNSPRMEIRDRDRSAYIL	inactive
FPYLRRTMGVLIYQCVPIRG	inactive
IICLSGGDFRRYELDHSN	inactive
CFLMN	inactive
GGPSYSLSLWLSKVSCLQGG	0.63 ± 0.34
FLRLKFRAYDP	1.01 ± 0.11
LDRSVMIRFGLELMRWSSGG	0.356 ± 0.35
GLFMRFTRWCRGKHVTMVP	inactive
WINGTISDC	inactive
AFCLQYVCYAKLMGNVNNTC	1.75 ± 0.084
LRNLNK	inactive
FAQLISYHSMLTCCKMTM	1.54 ± 0.096
GRLALSTRQHLV	inactive
LGRLVG	inactive
LSDGGAFLLIRHVFVWGFVT	inactive
YFWEASGFHFIRLVTTASTQ	inactive
